The text below walks through data of patent publication US20110143379A1 (Johns Hopkins, published 2011).

The experiment deals with T1, albumin (in whole human plasma) (human, UniProt P02768 25-609).
T1 construct: Endogenous plasma protein, not a purified reagent
Kind of experiment: ethanol precipitation of human plasma spiked with TRX; fractions followed by western blot.

T1 sequence (P02768 25-609 limits assumed): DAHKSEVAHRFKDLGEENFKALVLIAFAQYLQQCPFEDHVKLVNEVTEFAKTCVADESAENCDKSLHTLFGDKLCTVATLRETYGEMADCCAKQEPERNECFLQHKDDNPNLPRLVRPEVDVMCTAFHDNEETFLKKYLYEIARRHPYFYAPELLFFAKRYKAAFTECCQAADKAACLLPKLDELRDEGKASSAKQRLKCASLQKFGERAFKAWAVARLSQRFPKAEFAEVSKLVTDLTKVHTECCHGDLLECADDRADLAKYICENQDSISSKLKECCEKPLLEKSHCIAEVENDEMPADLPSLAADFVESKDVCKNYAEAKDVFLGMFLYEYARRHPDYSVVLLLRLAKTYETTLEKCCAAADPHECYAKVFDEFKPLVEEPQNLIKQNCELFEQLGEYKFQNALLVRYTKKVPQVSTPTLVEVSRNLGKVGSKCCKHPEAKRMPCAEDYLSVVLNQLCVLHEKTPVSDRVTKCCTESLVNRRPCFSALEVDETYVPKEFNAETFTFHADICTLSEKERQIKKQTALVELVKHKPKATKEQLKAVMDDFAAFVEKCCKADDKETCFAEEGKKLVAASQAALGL

B1: recombinant human thioredoxin (TRX), full length (enzyme)
chain: VKQIESKTAFQEALDAAGDKLVVVDFSATWCGPCKMIKPFFHSLSEKYSNVIFLEVDVDDCQDVASECEVKCMPTFQFFKKGQKVGEFSGANKEKLEATINELV
notes: It was denatured on SDS gels for the western blots; also called full-length thioredoxin
For B1, the binding result was “binds”.
